Measurements: patent US20240092909A1 (IBIO, published 2024)

How the values were obtained:
[1] = biological target: T1, Programmed cell death protein 1 (PD-1), human (human, UniProt Q15116 25-167, limits assumed); assay: SPR on PD-1, sensorgrams at three concentrations with fit
T1 construct: also called full-length PD-1

[2] = biological target: T1, Programmed cell death protein 1 (PD-1), …; assay: SPR, PD-1 binding (FIG. 2B); SPR affinity format, FIG. 2B
[3] = biological target: T1, Programmed cell death protein 1 (PD-1), …; assay: SPR, PD-1 avidity (FIG. 2C); SPR avidity format, FIG. 2C
[4] = biological target: T1, Programmed cell death protein 1 (PD-1), …; assay: SPR on PD-1, sensorgrams at five concentrations with fit
[5] = biological target: T1, Programmed cell death protein 1 (PD-1), …; assay: SPR avidity, column 'Avidity (nM)' of the drawn table
[6] = biological target: T1, Programmed cell death protein 1 (PD-1), …; assay: SPR avidity measurement (mimic cell surface PD-1 clusters), response in nm, three traces
[7] = biological target: T1, Programmed cell death protein 1 (PD-1), …; assay: SPR affinity measurement, response in nm, four traces
[8] = biological target: T1, Programmed cell death protein 1 (PD-1), …; assay: cell-based or functional assay
[9] = biological target: T1, Programmed cell death protein 1 (PD-1), …; assay: SPR affinity, column 'Affinity (nM)' of the drawn table

T1 sequence (Q15116 25-167 limits assumed): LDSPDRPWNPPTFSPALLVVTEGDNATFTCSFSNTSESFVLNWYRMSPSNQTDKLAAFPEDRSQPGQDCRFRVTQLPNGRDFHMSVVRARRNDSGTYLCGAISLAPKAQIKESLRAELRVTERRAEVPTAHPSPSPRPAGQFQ

Row | Binder | Kd [4] [nM] | Kd [5] [nM] | Kd [6] [nM] | Kd [7] [nM] | PD-1 agonism EC50, PathHunter Checkpoint Signaling Assay [8] [nM] | Kd [9] [nM] | also measured
1 | 43 (antibody, V domains shown, From phage panning of a naive antibody library; also called antibody 43; clone 43) VH: EVQLLESGGGLVQPGGSLRLSCAASGFTFSIHPMTWVRQAPGKGLEWVSLISTGGGSTYYADSVKGRFTISRDNSKNTLYLQMNSLRAEDTAVYYCASASVLGSGGYWSPGMDYWGQGTLVTVSS VL: DIQMTQSPSSLSASVGDRVTITCRASQSIDRFLNWYQQKPGKAPKLLIYGASNLPSGVPSRFSGSGSGTDFTLTISSLQPEDFATYYCQQSFSIPWTFGGGTKVEIK |  |  |  |  |  |  | Kd [1]: 6.3 nM
2 | 7 (antibody, V domains shown, From phage panning of a naive antibody library; also called antibody 7; clone 7) VH: EVQLLESGGGLVQPGGSLRLSCAASGFPFGNYLMNWVRQAPGKGLEWVSVISGGGVSTYYADSVKGRFTISRDNSKNTLYLQMNSLRAEDTAVYYCARGPSSWPAFDVWGQGTLVTVSS VL: DIQMTQSPSSLSASVGDRVTITCRASETISNFLNWYQQKPGKAPKLLIYTTSSLQRGVPSRFSGSGSGTDFTLTISSLQPEDFATYYCQQSYSVPWTFGGGTKVEIK |  |  |  |  |  |  | Kd [1]: 16 nM
3 | 27A5 (antibody, V domains shown, Antibody from a monoclonal hybridoma of immunised BALB/c mice) VH: QVTLKESGPGILQPSQTLSLTCSFSGFSLSTFGMGVGWIRQPSGKGLEWLAHIWWDADKYSTPALKSRLTISKDTSKNQVFLKIANVDTADTATYYCARIGRNYYFDYWGQGTTLTVSS VL: DIVMTQSPSSLAVSVGEKVTLTCKSSQTLLDSTNQKNYLAWYQQIPGQSPKLLIYWASTRESGVPDRFTGSGSGTDFTLTISSVKAEDLTVYYCQQYYTYPLTFGAGTKLELK |  |  |  |  |  |  | Kd [2]: 55 nM; Kd [3]: 5 pM
4 | E2-B5-7_201 (antibody, V domains shown) VH: EVQLVQSGAEVKKPGATVKISCKASGYSLSDHYMHWVQQAPGKGLEWMGRIDPHSGATKYDPKFQGRVTITADTSTDTAYMELSSLRSEDTAVYYCARSGPVYHYGSSYVMDYWGQGTTVTVSS VL: DIVMTQSPDSLAVSLGERATINCKSGQSVFYSSNNKNYLAWYQQKPGQPPKLLIYWASTRESGVPDRFSGSGSGTDFTLTISSLQAEDVAVYYCQQYLYSWTFGQGTKLEIK | 1.2 |  |  |  |  |  | 
5 | E2-B5-6_201 (antibody, V domains shown) VH: EVQLVQSGAEVKKPGATVKISCKASGYSLSDHYMHWVQQAPGKGLEWMGRIDPHSGATKYDPKFQGRVTITADTSTDTAYMELSSLRSEDTAVYYCARSGPVHYYGSSYVMDYWGQGTTVTVSS VL: DIVMTQSPDSLAVSLGERATINCKSGQSVFYSSNNKNYLAWYQQKPGQPPKLLIYWASTRESGVPDRFSGSGSGTDFTLTISSLQAEDVAVYYCQQYLYSWTFGQGTKLEIK | 0.71 |  |  |  |  |  | 
6 | D4-A7-7_201 (antibody, V domains shown, also called clone D4-A7-7_201) VH: EVQLVQSGAEVKKPGATVKISCKASGYILTDHYMHWVQQAPGKGLEWMGRIDPHSGGIKYDPKFQGRVTITADTSTDTAYMELSSLRSEDTAVYYCARSGPVYHYGSSYVMDYWGQGTTVTVSS VL: DIVMTQSPDSLAVSLGERATINCKSGQSVFYSSNNKNYLAWYQQKPGQPPKLLIYWASTRESGVPDRFSGSGSGTDFTLTISSLQAEDVAVYYCQQYLYSWTFGQGTKLEIK | 1.1 |  |  |  |  |  | 
7 | E2-B5-7_211 (antibody, V domains shown) VH: EVQLVQSGAEVKKPGATVKISCKASGYSLSDHYMHWVQQAPGKGLEWMGRIDPHSGATKYDPKFQGRVTITADTSTDTAYMELSSLRSEDTAVYYCARSGPVYHYGSSYVMDYWGQGTTVTVSS VL: DIVMTQSPDSLAVSLGERATINCKSGQSVFYSSNNKNYLAWYQQKPGQPPKLLIYWADTRESGVPDRFSGSGSGTDFTLTISSLQAEDVAVYYCQQYLYSWTFGQGTKLEIK | 0.695 |  |  |  |  |  | 
8 | 1-C09-3 (antibody, V domains shown, From the in vitro scFv library of immunised mice) VH: QVQLQQPGAELVRPGTSVKLSCKASGYTFTSYWMHWVKERPGQGLEWIGVIDPSDSYTNYNQKFKDKATLTVDTSSSTAYMQLSSLTSEDSAVYYCARSPFDYWGQGTTLTVSS VL: DIQMTQSQKFMSTSVGDRVSVTCKASQNVGTNVAWYQQKPGQSPKALIYSASYRYSGVPDRFIGSGSGTDFTLTIRNVQSEDLAEYFCQQHNSYPFTFGGGTKLEIK |  | 0.77 | 0.77 | 84 | 1.1 | 84 | 
9 | 1-F12-1 (antibody, V domains shown, From the in vitro scFv library of immunised mice) VH: EVQLQQPGAELVRPGTSVKLSCKASGYTFTSYWMHWVKQRPGQGLEWIGVIDPSDSYTQYNQKFKGKATLTVDTSSSTAYMQLSSLTSEDSAVYYCARSPFDYWGQGTTVTVSS VL: DIVMTQSHKFMSTSVGDRVSITCKASQDVSTAVAWYQQKPGQSPKALIYSASYRYSGVPDRFTGSGSGTDFTLTISNVQAEDLAVYYCHQHNTYPFTFGGGTKLEIK |  | 0.98 | 0.98 | 21 | 1.6 | 21 | 
10 | 1-F09-1 (antibody, V domains shown, From the in vitro scFv library of immunised mice) VH: QVQLQQPGAEVVMPGASVKLSCKASGYTFTSYWMHWVKQRPGQGLEWIGVIDPSDSYTQYNQKFKGKATLTVDTSSSTAYMQLSSLTSEDSAVYYCARSPFDYWGQGTTLTVSS VL: DIQMNQSHKFMSTSVGDRVSITCKASQDVSTAVAWYQQKPGQSPKALIYSASNRYSGVPDRFIGSGSGTDFTLTIRNVQSEDLAEYFCQQHNSYPFTFGGGTKLEMK |  | 0.46 | 0.46 | 13 | 1.1 | 13 | 
11 | 1-C09-1 (antibody, V domains shown, From the in vitro scFv library of immunised mice) VH: QVQLQQPGTELVRPGTSVKMSCKASGYTFTSYWMHWVKQRPGQGLEWIGVIDPSDSYTQYNQKFKGKATLTVDTSSSTAYMQLSSLTSEDSAVYYCARSPFDYWGQGTTLTVSS VL: DIVMTQSQKFMSTSVGDRVSVTCKASQNVGTNVAWYQQKPGQSPKALIYSASYRYSGIPDRFTGSGSGTDFTLTISNVQSEDLADFFCQQYNSYPFTFGGGTKLEIK |  | 3.7 | 3.7 | 150 | 1.4 | 150 | 
12 | 1-H01-1 (antibody, V domains shown, From the in vitro scFv library of immunised mice; also called clone 1-H01-1) VH: QVQLQQPGAELVKPGASVKMSCKASGYTFTSYWMHWVKQRPGQGLEWIGVIDPSNSYTIYNQKFKGKATLTVDTSSSTAYMQLSSLTSEDSAVYYCARSPFDYWGQGTTLTVSS VL: DVVMTQSQKFMSTSVGDRVSVTCKASQNVGTNVAWYQQKPGQSPKALIYSASYRYSGVPDRFTGSGSGTDFTLTIRNVQSEDLAEYFCQQHNSYPFTFGGGTKLEIK |  | 0.44 | 0.44 | 78 | 0.9 | 78 | 
13 | 2-D11-1 (antibody, V domains shown, From the in vitro scFv library of immunised mice) VH: EVQLQQPGAELVRPGTSVKLACKASGYTFNTYWMHWVNQRPGQGLEWIGVIDPSDSYTQYNQKFKGKATLTVDTSSSTAYMQLSSLTSEDSAVYYCARSPFDYWGQGTTLTVSS VL: DVQMTQSQKFMSTSVGDRVSVTCKASQNVGTNVAWYQQKPGQSPKALIYSASYRYSGVPDRFIGSGSGTDFTLTISNVQSEDLAEYFCQQHNSYPFTFGGGTKLEIK |  | 0.96 | 0.96 | 15 | 1.2 | 15 | 
